Measured values published in article PMC9482650, “Quantitative fragmentomics allow affinity mapping of interactomes” (Nature Communications, 2022).

Experiments:
Test in all cases: holdup assay
Parameters in all cases: key: below the threshold = too weak to quantify, mostly under pKd 3.1 to 4
Details in all cases: plain residues with an end cap or a label only (N-terminal biotin on a linker: ado-ado)
[1] = target: DLG1_1, Q12959
[2] = target: T1, PDZRN3_1, Q9UPQ7
T1 sequence (Q9UPQ7 244-349, limits assumed, looked up): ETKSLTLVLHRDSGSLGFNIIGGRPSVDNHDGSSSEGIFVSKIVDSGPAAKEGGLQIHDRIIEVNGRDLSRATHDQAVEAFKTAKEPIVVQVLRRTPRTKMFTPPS

[3] = target: NHERF4_4, Q86UT5
[4] = target: TJP2_1, Q9UDY2
[5] = target: PDLIM1, O00151
[6] = target: LNX1_3, Q8TBB1
[7] = target: T2, RADIL, Q96JH8
T2 sequence (Q96JH8 971-1071, limits assumed, looked up): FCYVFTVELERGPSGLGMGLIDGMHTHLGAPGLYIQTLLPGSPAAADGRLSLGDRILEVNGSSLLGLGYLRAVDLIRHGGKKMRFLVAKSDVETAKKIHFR

[8] = target: PDZRN4_1, Q6ZMN7
[9] = target: GOPC, Q9HD26
[10] = target: T3, RHPN1, Q8TCX5
T3 sequence (Q8TCX5 508-602, limits assumed, looked up): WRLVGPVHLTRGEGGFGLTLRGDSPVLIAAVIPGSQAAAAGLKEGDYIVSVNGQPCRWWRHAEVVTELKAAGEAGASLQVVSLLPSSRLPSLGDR

[11] = target: HTRA1, Q92743
[12] = target: T4, GRIP1_3, Q9Y3R0
T4 sequence (Q9Y3R0 247-346, limits assumed, looked up): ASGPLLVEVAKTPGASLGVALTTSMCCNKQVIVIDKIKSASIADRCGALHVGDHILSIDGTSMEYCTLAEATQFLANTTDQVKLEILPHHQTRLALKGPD

[13] = target: Inadl_10, Q8NI35
[14] = target: DLG5_1, Q8TDM6
[15] = target: GORASP1, Q9BQQ3
[16] = target: DLG4_3, P78352
[17] = target: SCRIB_1, Q14160
[18] = target: MAST2, Q6P0Q8
[19] = target: MAGI1_1, Q96QZ7
[20] = target: T5, TJP3_3, O95049
T5 sequence (O95049 375-456, limits assumed, looked up): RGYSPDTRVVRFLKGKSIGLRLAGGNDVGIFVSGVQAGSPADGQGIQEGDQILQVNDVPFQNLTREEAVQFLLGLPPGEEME

[21] = target: T6, FRMPD1, Q5SYB0
T6 sequence (Q5SYB0 52-145, limits assumed, looked up): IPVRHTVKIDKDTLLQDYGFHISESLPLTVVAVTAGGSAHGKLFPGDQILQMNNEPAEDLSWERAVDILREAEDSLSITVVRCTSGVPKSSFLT

[22] = target: T7, RAPGEF6, Q8TEU7
T7 sequence (Q8TEU7 525-625, limits assumed, looked up): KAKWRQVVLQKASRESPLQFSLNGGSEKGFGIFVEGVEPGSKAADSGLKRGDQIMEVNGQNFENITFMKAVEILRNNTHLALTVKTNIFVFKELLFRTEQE

[23] = target: T8, GRIP1_2, Q9Y3R0
T8 sequence (Q9Y3R0 145-248, limits assumed, looked up): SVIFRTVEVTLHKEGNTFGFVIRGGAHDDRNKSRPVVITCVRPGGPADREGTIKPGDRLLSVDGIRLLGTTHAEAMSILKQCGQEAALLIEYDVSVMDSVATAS

[24] = target: NHERF4_2, Q86UT5
[25] = target: T9, LIN7A, O14910
T9 sequence (O14910 103-200, limits assumed, looked up): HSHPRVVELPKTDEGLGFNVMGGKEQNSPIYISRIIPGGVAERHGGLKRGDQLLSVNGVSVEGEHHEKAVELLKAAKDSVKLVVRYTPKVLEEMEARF

[26] = target: T10, GRIP1_5, Q9Y3R0
T10 sequence (Q9Y3R0 568-668, limits assumed, looked up): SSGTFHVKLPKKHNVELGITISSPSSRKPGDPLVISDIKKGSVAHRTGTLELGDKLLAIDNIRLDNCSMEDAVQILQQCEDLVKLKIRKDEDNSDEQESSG

[27] = target: GORASP2, Q9H8Y8
[28] = target: LNX1_1, Q8TBB1
LNX1_1, Q8TBB1, sequence (Q8TBB1 261-371): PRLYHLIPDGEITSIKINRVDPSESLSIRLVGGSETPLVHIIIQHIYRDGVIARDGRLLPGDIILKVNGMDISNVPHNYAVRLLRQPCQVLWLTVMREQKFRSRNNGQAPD

NHERF4_2, Q86UT5, sequence (Q86UT5 220-308): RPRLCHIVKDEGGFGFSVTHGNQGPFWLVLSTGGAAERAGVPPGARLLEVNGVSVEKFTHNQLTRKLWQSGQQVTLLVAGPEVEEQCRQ
MAGI1_1, Q96QZ7, sequence (Q96QZ7 1-106): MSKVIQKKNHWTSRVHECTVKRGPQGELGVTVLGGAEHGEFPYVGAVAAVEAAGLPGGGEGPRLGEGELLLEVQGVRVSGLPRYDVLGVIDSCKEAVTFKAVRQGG
DLG4_3, P78352, sequence (P78352 306-403): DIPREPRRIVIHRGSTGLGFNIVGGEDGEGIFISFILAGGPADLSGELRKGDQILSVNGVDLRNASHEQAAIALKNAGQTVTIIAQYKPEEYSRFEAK
DLG5_1, Q8TDM6, sequence (Q8TDM6 617-713): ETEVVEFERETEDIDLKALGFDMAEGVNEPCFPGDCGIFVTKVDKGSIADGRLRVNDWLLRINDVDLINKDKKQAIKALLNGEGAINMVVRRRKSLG
TJP2_1, Q9UDY2, sequence (Q9UDY2 24-128): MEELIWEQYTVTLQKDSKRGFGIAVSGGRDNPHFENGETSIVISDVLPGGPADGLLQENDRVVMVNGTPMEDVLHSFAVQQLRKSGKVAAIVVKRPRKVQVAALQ
HTRA1, Q92743, sequence (Q92743 360-477): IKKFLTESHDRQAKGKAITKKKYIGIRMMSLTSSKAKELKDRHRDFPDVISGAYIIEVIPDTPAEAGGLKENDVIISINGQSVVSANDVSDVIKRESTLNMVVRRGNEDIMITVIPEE
PDLIM1, O00151, sequence (O00151 1-87): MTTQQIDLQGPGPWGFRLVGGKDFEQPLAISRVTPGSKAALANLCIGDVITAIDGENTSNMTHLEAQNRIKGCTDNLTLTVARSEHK
LNX1_3, Q8TBB1, sequence (Q8TBB1 500-596): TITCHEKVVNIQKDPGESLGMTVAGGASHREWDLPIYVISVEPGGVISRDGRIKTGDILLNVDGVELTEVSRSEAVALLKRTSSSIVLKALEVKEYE
Inadl_10, Q8NI35, sequence (Q8NI35 1673-1763): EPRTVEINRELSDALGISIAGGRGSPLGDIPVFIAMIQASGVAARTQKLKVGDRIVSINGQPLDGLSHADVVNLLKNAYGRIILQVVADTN
NHERF4_4, Q86UT5, sequence (Q86UT5 464-550): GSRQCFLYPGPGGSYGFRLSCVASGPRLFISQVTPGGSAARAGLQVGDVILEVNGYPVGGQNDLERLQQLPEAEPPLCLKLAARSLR
GORASP1, Q9BQQ3, sequence (Q9BQQ3 1-208): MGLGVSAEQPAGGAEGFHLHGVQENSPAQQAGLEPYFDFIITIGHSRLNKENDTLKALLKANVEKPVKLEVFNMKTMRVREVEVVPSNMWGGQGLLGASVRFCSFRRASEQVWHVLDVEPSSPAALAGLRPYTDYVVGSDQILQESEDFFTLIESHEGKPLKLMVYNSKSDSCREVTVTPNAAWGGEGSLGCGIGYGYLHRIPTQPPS
SCRIB_1, Q14160, sequence (Q14160 718-814): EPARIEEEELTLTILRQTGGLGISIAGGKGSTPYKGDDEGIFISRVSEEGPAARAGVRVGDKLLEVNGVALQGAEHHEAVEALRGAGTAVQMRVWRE
PDZRN4_1, Q6ZMN7, sequence (Q6ZMN7 213-318): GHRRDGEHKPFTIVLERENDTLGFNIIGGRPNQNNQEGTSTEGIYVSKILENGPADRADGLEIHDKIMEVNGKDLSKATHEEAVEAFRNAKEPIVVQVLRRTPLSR
MAST2, Q6P0Q8, sequence (Q6P0Q8 1099-1202): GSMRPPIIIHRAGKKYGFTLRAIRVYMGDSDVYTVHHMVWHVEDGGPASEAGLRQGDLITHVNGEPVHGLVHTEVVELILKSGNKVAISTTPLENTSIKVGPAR

B1: POLR1D, P0DPB6 (peptide)
chain: QKASRNESTF
- pKd [1]: below the threshold
- pKd [2]: below the threshold
- pKd [3]: 3.81
- pKd [4]: below the threshold
- pKd [5]: below the threshold
- pKd [6]: below the threshold
- pKd [7]: below the threshold
- pKd [8]: below the threshold
- pKd [9]: below the threshold
- pKd [10]: below the threshold
- pKd [11]: below the threshold
- pKd [12]: below the threshold
- pKd [13]: below the threshold
- pKd [14]: below the threshold
- pKd [15]: below the threshold
- pKd [16]: below the threshold
- pKd [17]: 3.55
- pKd [18]: 4.95
- pKd [19]: below the threshold
- pKd [20]: below the threshold
- pKd [21]: below the threshold
- pKd [22]: below the threshold
- pKd [23]: below the threshold
- pKd [24]: below the threshold
- pKd [25]: below the threshold
- pKd [26]: below the threshold
- pKd [27]: below the threshold
- pKd [28]: 3.52

B2: FCHSD2, O94868 (peptide)
chain: KIEDVEITLV
- pKd [1]: 3.79
- pKd [2]: below the threshold
- pKd [3]: below the threshold
- pKd [4]: below the threshold
- pKd [5]: below the threshold
- pKd [6]: below the threshold
- pKd [7]: 5.03
- pKd [8]: 3.64
- pKd [9]: 4.09
- pKd [10]: 4.76
- pKd [11]: 5.5
- pKd [12]: below the threshold
- pKd [13]: below the threshold
- pKd [14]: 3.52
- pKd [15]: 3.91
- pKd [16]: below the threshold
- pKd [17]: 3.8
- pKd [18]: 5.63
- pKd [19]: below the threshold
- pKd [20]: below the threshold
- pKd [21]: below the threshold
- pKd [22]: below the threshold
- pKd [23]: below the threshold
- pKd [24]: below the threshold
- pKd [25]: below the threshold
- pKd [26]: below the threshold
- pKd [27]: 4.01
- pKd [28]: below the threshold

B3: NPSR1, Q6W5P4 (peptide)
chain: MQILSKPEFI
- pKd [1]: below the threshold
- pKd [2]: below the threshold
- pKd [3]: below the threshold
- pKd [4]: below the threshold
- pKd [5]: below the threshold
- pKd [6]: below the threshold
- pKd [7]: 4.42
- pKd [8]: below the threshold
- pKd [9]: below the threshold
- pKd [10]: below the threshold
- pKd [11]: 4.15
- pKd [12]: below the threshold
- pKd [13]: below the threshold
- pKd [14]: below the threshold
- pKd [15]: 4.15
- pKd [16]: 3.49
- pKd [17]: below the threshold
- pKd [18]: below the threshold
- pKd [19]: below the threshold
- pKd [20]: below the threshold
- pKd [21]: below the threshold
- pKd [22]: below the threshold
- pKd [23]: below the threshold
- pKd [24]: below the threshold
- pKd [25]: below the threshold
- pKd [26]: below the threshold
- pKd [27]: 4.61
- pKd [28]: below the threshold

B4: TRPM1, Q7Z4N2 (peptide)
chain: KEKASTETEC
- pKd [1]: 3.96
- pKd [2]: below the threshold
- pKd [3]: below the threshold
- pKd [4]: below the threshold
- pKd [5]: below the threshold
- pKd [6]: below the threshold
- pKd [7]: below the threshold
- pKd [8]: below the threshold
- pKd [9]: below the threshold
- pKd [10]: below the threshold
- pKd [11]: 3.62
- pKd [12]: below the threshold
- pKd [13]: below the threshold
- pKd [14]: below the threshold
- pKd [15]: below the threshold
- pKd [16]: 3.65
- pKd [17]: 4.31
- pKd [18]: 4.78
- pKd [19]: below the threshold
- pKd [20]: below the threshold
- pKd [21]: below the threshold
- pKd [22]: below the threshold
- pKd [23]: below the threshold
- pKd [24]: below the threshold
- pKd [25]: below the threshold
- pKd [26]: below the threshold
- pKd [27]: below the threshold
- pKd [28]: below the threshold
